Here are results for 1 sequence from paper PMC11299580, “Discovery of novel disease-causing mutation in SSBP1 and its correction using adenine base editor to improve mitochondrial function” (Molecular Therapy. Nucleic Acids, 2023).

This data set addresses T1, SSBP1 Arg91Gln R91Q (Homo sapiens) (UniProt Q04837).
T1 sequence: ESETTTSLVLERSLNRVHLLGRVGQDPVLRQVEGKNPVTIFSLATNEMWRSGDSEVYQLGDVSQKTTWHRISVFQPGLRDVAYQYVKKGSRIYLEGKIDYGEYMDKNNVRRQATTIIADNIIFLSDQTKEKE
The data set can be described thus: EMSA. Conditions: 50 mM Tris pH 7.5, 150 mM NaCl, 10% glycerol, 30 min at room temperature; 2% agarose gel in 1x TBE. A general note: A gel shift assay detects complexes by their altered migration in electrophoresis.

Sequence “GGACTATTTATTCAATATATTTAAGAACTAATTCCAGCTGAGCGCCGG [EMSA ssDNA probe]” returned a dissociation constant (Kd) of 20.2 nM.

Broadly, the Kd is the concentration at which binding is half-saturated.
